According to publication PMC6073210, “Adducin‐1 is essential for spindle pole integrity through its interaction with TPX2” (EMBO Reports, 2018):
Numbering of substitutions follows the chain as printed. One block for each molecule: values may come before it.

What was measured:
[1] = biological target: TPX2 (UniProt Q9ULW0); test: anti-FLAG resin co-IP, TPX2 blot; details: reference: FLAG-ADD1 wild type, M phase; sites S726
[2] = biological target: T1, FLAG-ADD1 WT (adducin-1), transiently expressed in HEK293 cells (UniProt P35611 1-737); test: pull-down; GST-TPX2 fusion proteins immobilised on glutathione agarose beads, incubated with 25 μg of lysates from HEK293 cells expressing FLAG-tagged ADD1 forms at 4°C for 60 min; washed with TBS buffer; blot with anti-FLAG; details: one partner purified
T1 construct: adducin-1 (ADD1); pCMV-3Tag-3A probably adds a C-terminal 3x FLAG; also called FLAG-tagged ADD1; 293/FLAG-ADD1; source: HEK293, transiently transfected, in lysate
T1 sequence (looked up): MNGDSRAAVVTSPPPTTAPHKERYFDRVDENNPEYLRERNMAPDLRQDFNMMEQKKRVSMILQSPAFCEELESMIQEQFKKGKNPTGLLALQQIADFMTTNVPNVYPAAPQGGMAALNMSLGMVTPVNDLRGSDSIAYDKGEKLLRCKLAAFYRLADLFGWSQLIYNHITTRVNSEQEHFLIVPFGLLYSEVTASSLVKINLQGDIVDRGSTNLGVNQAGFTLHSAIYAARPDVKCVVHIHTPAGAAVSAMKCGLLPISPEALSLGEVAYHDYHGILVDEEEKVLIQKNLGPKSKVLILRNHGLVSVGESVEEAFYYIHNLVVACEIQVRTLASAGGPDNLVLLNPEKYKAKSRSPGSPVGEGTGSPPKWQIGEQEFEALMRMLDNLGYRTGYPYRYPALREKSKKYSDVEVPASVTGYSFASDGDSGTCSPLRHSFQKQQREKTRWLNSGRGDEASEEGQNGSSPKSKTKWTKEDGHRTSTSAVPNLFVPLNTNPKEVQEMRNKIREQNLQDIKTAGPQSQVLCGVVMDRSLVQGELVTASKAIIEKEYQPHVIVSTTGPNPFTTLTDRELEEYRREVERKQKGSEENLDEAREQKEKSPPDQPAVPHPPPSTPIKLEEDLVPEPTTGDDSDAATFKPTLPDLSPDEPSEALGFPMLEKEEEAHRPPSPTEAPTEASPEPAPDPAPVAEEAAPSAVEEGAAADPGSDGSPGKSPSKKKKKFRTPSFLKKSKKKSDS

[3] = biological target: T2, FLAG-ADD1 S726A mutant, expressed in HeLa cells (UniProt P35611 1-737, S726A); test: co-IP; HeLa cells expressing FLAG-ADD1 WT or S726A, synchronized at the M phase (nocodazole); lysates in TBS buffer (1% Triton X-100, 50 mM Tris-HCl pH 7.4, 150 mM NaCl) incubated with anti-FLAG M2 affinity resins for 16 h, eluted with FLAG peptide, blotted with anti-FLAG and anti-TPX2; details: partners not purified
T2 construct: adducin-1 (ADD1) with S726A; source: HeLa cells expressing FLAG-ADD1 S726A (lentiviral vector pLAS3w.Pneo), in whole-cell lysate
T2 sequence (looked up): T1 sequence (looked up) with S726A

- TPX2 co-IP binding relative to wild type [1]: weaker
Molecule: adducin-1 (ADD1) (from UniProt P35611) FLAG-ADD1 S726A, M phase

- binding result [2]: binds
B1: GST-TPX2 aa 120–370 fusion protein (domain or fragment, human, UniProt Q9ULW0 120-370, looked up)
chain: RSLRLSAQKDLEQKEKHHVKMKAKRCATPVIIDEILPSKKMKVSNNKKKPEEEGSAHQDTAEKNASSPEKAKGRHTVPCMPPAKQKFLKSTEEQELEKSMKMQQEVVEMRKKNEEFKKLALAGIGQPVKKSVSQVTKSVDFHFRTDERIKQHPKNQEEYKEVNFTSELRKHPSSPARVTKGCTIVKPFNLSQGKKRTFDETVSTYVPLAQQVEDFHKRTPNRYHLRSKKDDINLLPSKSSVTKICRDPQTP
notes: TPX2, Homo sapiens, aa 120–370 of the full-length cDNA (aa 1–747), subcloned into pGEX-2T; pGEX-2T probably places GST at the N-terminus; also called TPX2 aa 120–370 fragment; GST-tagged TPX2 aa 120–370; source: E. coli BL21, purified on glutathione agarose beads

- percent decrease of the interaction relative to FLAG-ADD1 WT [3]: ~50%
B2: TPX2, endogenous in HeLa cells (natural protein, human (endogenous in HeLa), UniProt Q9ULW0 1-747, looked up)
chain: MSQVKSSYSYDAPSDFINFSSLDDEGDTQNIDSWFEEKANLENKLLGKNGTGGLFQGKTPLRKANLQQAIVTPLKPVDNTYYKEAEKENLVEQSIPSNACSSLEVEAAISRKTPAQPQRRSLRLSAQKDLEQKEKHHVKMKAKRCATPVIIDEILPSKKMKVSNNKKKPEEEGSAHQDTAEKNASSPEKAKGRHTVPCMPPAKQKFLKSTEEQELEKSMKMQQEVVEMRKKNEEFKKLALAGIGQPVKKSVSQVTKSVDFHFRTDERIKQHPKNQEEYKEVNFTSELRKHPSSPARVTKGCTIVKPFNLSQGKKRTFDETVSTYVPLAQQVEDFHKRTPNRYHLRSKKDDINLLPSKSSVTKICRDPQTPVLQTKHRARAVTCKSTAELEAEELEKLQQYKFKARELDPRILEGGPILPKKPPVKPPTEPIGFDLEIEKRIQERESKKKTEDEHFEFHSRPCPTKILEDVVGVPEKKVLPITVPKSPAFALKNRIRMPTKEDEEEDEPVVIKAQPVPHYGVPFKPQIPEARTVEICPFSFDSRDKERQLQKEKKIKELQKGEVPKFKALPLPHFDTINLPEKKVKNVTQIEPFCLETDRRGALKAQTWKHQLEEELRQQKEAACFKARPNTVISQEPFVPKKEKKSVAEGLSGSLVQEPFQLATEKRAKERQELEKRMAEVEAQKAQQLEEARLQEEEQKKEELARLRRELVHKANPIRKYQGLEIKSSDQPLTVPVSPKFSTRFHC
notes: TPX2, endogenous protein of HeLa cells detected with anti-TPX2; source: endogenous, HeLa whole-cell lysate
